Test results taken from US20160159862A1 (PROTAGONIST THERAPEUTICS, published 2016).
Bridge positions count the residues as written; N and C are the ends. Square brackets hold non-standard residues; d marks the D form. Ends that are not written are not given here. * marks the point of attachment. Phe(4-tBu) = CC(C)(C)c1ccc(C[C@H](N)C(=O)O)cc1; Oleoyl = CCCCCCCC/C=C\CCCCCCCC(=O)*; NMeR = CN[C@@H](CCCNC(=N)N)C(=O)O; Palmitoyl = CCCCCCCCCCCCCCCC(=O)*; Myristoyl = CCCCCCCCCCCCCC(=O)*; β3hE = N[C@@H](CCC(=O)O)CC(=O)O; Pen = CC(C)(S)[C@H](N)C(=O)O; Lauroyl = CCCCCCCCCCCC(=O)*; Isovaleryl = CC(C)CC(=O)*; Hexanoyl = CCCCCC(=O)*

Target: α4β7 integrin on human cells (human, UniProt P13612 34-1032; P26010 20-798)
Assay: cell-based or functional assay

Binder	α4β7 cell (Hu) IC50
Lauroyl-[Pen][NMeR]SDTL[Pen][Phe(4-tBu)][β3hE][dK]-NH2 (disulfide 1-7 (inferred)) [SEQ ID NO 179]	> 100 nM
Palmitoyl-[Pen][NMeR]SDTL[Pen][Phe(4-tBu)][β3hE][dK]-NH2 (disulfide 1-7 (inferred)) [SEQ ID NO 178]	> 1000 nM
Ac-[Pen][NMeR]SDTL[Pen][Phe(4-tBu)][b‑H‑E][dK] (disulfide 1-7 (inferred); not fully specified (residue 10); also: isovaleric acid attached after k) [SEQ ID NO 171]	> 10 nM
Ac-[Pen][NMeR]SDTL[Pen][Phe(4-tBu)][b‑H‑E][dK] (disulfide 1-7 (inferred); not fully specified (residue 10); also: myristoyl (myristoyl chloride) attached after k) [SEQ ID NO 175]	> 500 nM
Ac-[Pen][NMeR]SDTL[Pen][Phe(4-tBu)][b‑H‑E][dK] (disulfide 1-7 (inferred); not fully specified (residue 10); also: lauroyl (lauroyl chloride) attached after k) [SEQ ID NO 173]	> 100 nM
Myristoyl-[Pen][NMeR]SDTL[Pen][Phe(4-tBu)][β3hE][dK]-NH2 (disulfide 1-7 (inferred)) [SEQ ID NO 181]	> 1000 nM
Isovaleryl-[Pen][NMeR]SDTL[Pen][Phe(4-tBu)][b‑H‑E][dK]-NH2 (disulfide 1-7 (inferred)) [SEQ ID NO 177]	> 50 nM
Oleoyl-[Pen][NMeR]SDTL[Pen][Phe(4-tBu)][β3hE][dK]-NH2 (disulfide 1-7 (inferred)) [SEQ ID NO 180]	> 1000 nM
Ac-[Pen][NMeR]SDTL[Pen][Phe(4-tBu)][b‑H‑E][dK] (disulfide 1-7 (inferred); not fully specified (residue 10); also: palmitoyl (palmitoyl chloride) attached after k) [SEQ ID NO 172]	965 nM
Ac-[Pen][NMeR]SDIL[Pen][Phe(4-tBu)][β3hE][dK]-NH2 (disulfide 1-7 (inferred); also: homodimer via IDA) [SEQ ID NO 186]	> 100 nM
Ac-[Pen][NMeR]SDTQ[Pen][Phe(4-tBu)][β3hE][dK]-NH2 (disulfide 1-7 (inferred); also: homodimer via IDA) [SEQ ID NO 187]	> 100 nM
Ac-[Pen][NMeR]SDTL[Pen][Phe(4-tBu)][b‑H‑E][dK] (disulfide 1-7 (inferred); not fully specified (residue 10); also: oleoyl (oleoyl chloride) attached after k) [SEQ ID NO 174]	> 1000 nM
Hexanoyl-[Pen][NMeR]SDTL[Pen][Phe(4-tBu)][b‑H‑E][dK]-NH2 (disulfide 1-7 (inferred)) [SEQ ID NO 176]	> 50 nM
